# Source: patent US20170260257A1 (GREEN CROSS, published 2017)
# B1: the antibody of the present invention comprising a heavy-chain variable region having amino acid sequence of SEQ ID NO: 2 and a light-chain variable region … (antibody, V domains shown)
# VH: EVQLVESGGGLVKPGGSLRLSCSASGFSLTKYKMTWVRQAPGKGLEWVSSISSTSRDIDYADSVKGRFTISRDNAKNSLFLQMSSLRVDDTAVYYCTRDGWLWGWDVRSNYYYNALDVWGQGTTVTVSS
# VL: DIVVTQSPSSLSASVGDRVTITCRASQGIYNSIAWYQQKPGKAPKLLLYSTSTLLSGVPSRFSGSGSGTDYTLTITNLQPEDFATYYCQQYFVTPETFGQGTKLEIKR
# notes: Captured with goat anti-human IgG (Fc specific) agarose and compared with a human IgG1 isotype control, so a human IgG; also called rHBIG
# Legend:
# [1] = molecular target: HBsAg of YMDD mutant virus, patient blood sample YMDD #11 (hepatitis B virus); assay: sandwich ELISA: plate coated with the antibody, patient blood, detection with sheep anti-HBsAg/peroxidase
# [2] = molecular target: HBsAg of YMDD mutant virus, patient blood sample YMDD #3 (hepatitis B virus); assay: as above
# [3] = molecular target: HBsAg of YMDD mutant virus, patient blood sample YMDD #13 (hepatitis B virus); assay: as above
# [4] = molecular target: HBsAg of YMDD mutant virus, patient blood sample YMDD #9 (hepatitis B virus); assay: as above
# [5] = molecular target: HBsAg of YMDD mutant virus, patient blood sample YMDD #5 (hepatitis B virus); assay: as above
# [6] = molecular target: HBsAg of YMDD mutant virus, patient blood sample YMDD #14 (hepatitis B virus); assay: as above
# [7] = molecular target: HBsAg of YMDD mutant virus, patient blood sample YMDD #7 (hepatitis B virus); assay: as above
# [8] = molecular target: HBsAg of YMDD mutant virus, patient blood sample YMDD #10 (hepatitis B virus); assay: as above
# [9] = molecular target: HBsAg of YMDD mutant virus, patient blood sample YMDD #12 (hepatitis B virus); assay: as above
# [10] = molecular target: HBsAg of YMDD mutant virus, patient blood sample YMDD #6 (hepatitis B virus); assay: as above
# [11] = molecular target: HBsAg of YMDD mutant virus, patient blood sample YMDD #1 (hepatitis B virus); assay: as above
# [12] = molecular target: HBsAg of YMDD mutant virus, patient blood sample YMDD #4 (hepatitis B virus); assay: as above
# [13] = molecular target: HBsAg of YMDD mutant virus, patient blood sample YMDD #8 (hepatitis B virus); assay: as above
# [14] = molecular target: HBsAg mutant of patient LC 53 (liver cirrhosis) (hepatitis B virus); assay: as above
# [15] = molecular target: HBsAg mutant of patient CH 32 (chronic hepatitis) (hepatitis B virus); assay: as above
# [16] = molecular target: HBsAg mutant of patient LC 59 (liver cirrhosis) (hepatitis B virus); assay: as above
# [17] = molecular target: HBsAg mutant of patient HCC 1 (hepatocellular carcinoma) (hepatitis B virus); assay: as above
# [18] = molecular target: HBsAg mutant of patient HCC 11 (hepatocellular carcinoma) (hepatitis B virus); assay: as above
# [19] = molecular target: HBsAg mutant of patient CH 62 (chronic hepatitis) (hepatitis B virus); assay: as above
# [20] = molecular target: T1, HBsAg mutant of patient CH 15 (chronic hepatitis) (hepatitis B virus); assay: as above
# T1 construct: Positions count on the S (surface) protein
# [21] = molecular target: HBsAg mutant of patient LC 98 (liver cirrhosis) (hepatitis B virus); assay: as above
# [22] = molecular target: HBsAg mutant of patient CH 75 (chronic hepatitis) (hepatitis B virus); assay: as above
# [23] = molecular target: HBsAg mutant of patient LC 32 (liver cirrhosis) (hepatitis B virus); assay: as above
# [24] = molecular target: HBsAg mutant of patient HCC 94 (hepatocellular carcinoma) (hepatitis B virus); assay: as above
# [25] = molecular target: HBsAg mutant of patient CH 33 (chronic hepatitis) (hepatitis B virus); assay: as above
# [26] = molecular target: HBsAg mutant of patient CH 34 (chronic hepatitis) (hepatitis B virus); assay: as above
# [27] = molecular target: HBsAg mutant of patient HCC 22 (hepatocellular carcinoma) (hepatitis B virus); assay: as above
# [28] = molecular target: T2, G145R HBsAg mutant of patient S** (HBV recurred after liver transplantation) (hepatitis B virus); assay: sandwich ELISA: plate coated with the antibody (immobilized antibody rHBIG), patient blood, detection with sheep anti-HBsAg/peroxidase
# T2 construct: Position 145 of the HBV surface protein
# [29] = molecular target: G145R HBsAg mutant of patient C** (HBV recurred after liver transplantation) (hepatitis B virus); assay: as above
# [30] = molecular target: G145R HBsAg mutant of patient L** (HBV recurred after liver transplantation) (hepatitis B virus); assay: as above
# [31] = molecular target: G145R HBsAg mutant of patient B** (HBV recurred after liver transplantation) (hepatitis B virus); assay: as above
# [32] = molecular target: G145R HBsAg mutant of patient W** (HBV recurred after liver transplantation) (hepatitis B virus); assay: as above
binder,measurement,setting,value
B1,A450,[1],0.786 A450
same,A450,[2],0.957 A450
same,A450,[3],1.07 A450
same,A450,[4],0.834 A450
same,A450,[5],0.356 A450
same,A450,[6],0.815 A450
same,A450,[7],1.1 A450
same,A450,[8],1.13 A450
same,A450,[9],0.876 A450
same,A450,[10],1.04 A450
same,A450,[11],1.16 A450
same,A450,[12],1.02 A450
same,A450,[13],1.14 A450
same,ELISA,[14],3.5
same,ELISA,[15],2.95
same,ELISA,[16],3.63
same,ELISA,[17],3.61
same,ELISA,[18],3.36
same,ELISA,[19],3.08
same,ELISA,[20],3.06
same,ELISA,[21],3.55
same,ELISA,[22],2.93
same,ELISA,[23],2.73
same,ELISA,[24],3.56
same,ELISA,[25],2.83
same,ELISA,[26],1.37
same,ELISA,[27],3.52
same,ELISA signal (name and unit not given),[28],2.53
same,ELISA signal (name and unit not given),[29],2.47
same,ELISA signal (name and unit not given),[30],2.72
same,ELISA signal (name and unit not given),[31],3.08
same,ELISA signal (name and unit not given),[32],2.66
